Data as given in the supplement of paper PMC10724198.
± gives the standard deviation of the averaged measurements.

Test system: Saccharomyces cerevisiae
Test: protein stability index of tFT-peptide fusion (C-terminal peptide) (PSI (0-1 scale)); higher = more stable (slower turnover)
Conditions: genetic background: wild type; temperature: 30 C
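Further: PSI is a weighted mean of sequencing reads over stability bins, variants kept only with over 10 reads, mCherry proximal and sfGFP distal, peptide attached via GGGS linker.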

Sequence GDWIYRMDRILI has a protein stability index of 0.816 ± 0.035.
Sequence LMRGLYAIPGKF has a protein stability index of 0.776 ± 0.019.
For VFALPPAPPPSP, the protein stability index was 0.722 ± 0.062.
Work on TGIGPWVSPSIC yielded a protein stability index of 0.667 ± 0.018.
PTSPPPPPASPS was tested, and the protein stability index was 0.836 ± 0.18.
In the case of IENNIITRGTRV, the protein stability index is reported as 0.735 ± 0.027.
GEALVWGHGRLS was tested, and the protein stability index was 0.741 ± 0.041.
ISLVMLLKDAWR showed a protein stability index of 0.695 ± 0.019.
Work on IKNEKKKKKNKK yielded a protein stability index of 0.7 ± 0.035.
QKNWWLETVLRG was tested, and the protein stability index was 0.72 ± 0.023.
HTEVDIVKRDRR showed a protein stability index of 0.6896 ± 0.00098.
In the case of RLPLRVTGIPVD, the protein stability index is reported as 0.6668 ± 0.0016.
Sequence CVLGVGVPAGGG has a protein stability index of 0.634 ± 0.032.
Work on TRCDSSGGSAAP yielded a protein stability index of 0.68 ± 0.094.
SPLPPPPSRPPR gave a protein stability index of 0.794 ± 0.032.
EEGGVWIRVEAG gave a protein stability index of 0.588 ± 0.019.
For PPPLPPPLILTP, the protein stability index was 0.643 ± 0.054.
PHNPTFSPPTCP gave a protein stability index of 0.751 ± 0.027.
With PITSPPQVLLQH the protein stability index was 0.686 ± 0.033.
Work on GVEVVVWRSGGI yielded a protein stability index of 0.688 ± 0.019.
With SWPMLSVLADER the protein stability index was 0.717 ± 0.04.
Sequence LWLPSTSLIPLI has a protein stability index of 0.641 ± 0.018.
LPPQRPSQYLLH gave a protein stability index of 0.786 ± 0.11.
Work on SMGSGCTPSMVS yielded a protein stability index of 0.654 ± 0.11.
Work on RKNKQVDLCHRE yielded a protein stability index of 0.676 ± 0.037.
Work on PRPPSPPPPSPA yielded a protein stability index of 0.808 ± 0.072.
RDLGGECARQVG gave a protein stability index of 0.7 ± 0.04.
For GSYSIVDRTPLF, the protein stability index was 0.5679 ± 0.005.
Sequence QTNIGRKRTLPR has a protein stability index of 0.718 ± 0.013.
Sequence SVLVLPVLFLED has a protein stability index of 0.6884 ± 0.004.
With DIRGGDMGEWRE the protein stability index was 0.683 ± 0.023.
For CTSCHVWRLSRF, the protein stability index was 0.765 ± 0.034.
Sequence VRWSRFCLAFPV has a protein stability index of 0.605 ± 0.04.
For RISIHGECHFHK, the protein stability index was 0.654 ± 0.014.
For KCDLTREDVVHR, the protein stability index was 0.657 ± 0.01.
For ASGGIIRWGLWM, the protein stability index was 0.694 ± 0.029.
PCLVLSLYSDLP showed a protein stability index of 0.68 ± 0.032.
YRLVASSHLIFF showed a protein stability index of 0.661 ± 0.027.
In the case of SVGFVGVGCRGR, the protein stability index is reported as 0.707 ± 0.025.
PLFLHSAHVSPI gave a protein stability index of 0.712 ± 0.071.
With LLLLRSPPPTPP the protein stability index was 0.6722 ± 0.0021.
AVLGGLIYECVV gave a protein stability index of 0.634 ± 0.018.
Sequence HSRPHTAPPYRA has a protein stability index of 0.643 ± 0.023.
Work on ILGGRIRLVGRK yielded a protein stability index of 0.708 ± 0.033.
With LPPARRHPSVYR the protein stability index was 0.669 ± 0.064.
Work on FLSEPAKRILYL yielded a protein stability index of 0.667 ± 0.018.
For VEWGGDGVFWTG, the protein stability index was 0.8 ± 0.023.
Sequence IKGKNTGKERER has a protein stability index of 0.6176 ± 0.00089.
Sequence RHAVNAQPVARP has a protein stability index of 0.647 ± 0.036.
Sequence ISSKREITGSVA has a protein stability index of 0.694 ± 0.012.
Work on PPLRFFPPVSSH yielded a protein stability index of 0.667 ± 0.014.
PIPPLPSSRLGV gave a protein stability index of 0.602 ± 0.037.
With LQSLRSEVIHSL the protein stability index was 0.651 ± 0.095.
PTTNHLSNRHNI was tested, and the protein stability index was 0.685 ± 0.085.
HCFCFSVSSFFG showed a protein stability index of 0.667 ± 0.026.
Work on SSPLSSPLSTAP yielded a protein stability index of 0.622 ± 0.018.
GELCGHSRALHG gave a protein stability index of 0.676 ± 0.071.
PLFAPLTPPLPP gave a protein stability index of 0.734 ± 0.033.
GEVVRGGEWGLD gave a protein stability index of 0.686 ± 0.057.
RKKQKKQKKKKG showed a protein stability index of 0.682 ± 0.0092.
SPPESTFAFLRP was tested, and the protein stability index was 0.706 ± 0.037.
Sequence DGGVGGRAPRVR has a protein stability index of 0.744 ± 0.097.
With SMCASRMPVCFS the protein stability index was 0.767 ± 0.18.
LPSLRFLFPLVP showed a protein stability index of 0.671 ± 0.036.
In the case of FYKKKIRRGVNV, the protein stability index is reported as 0.661 ± 0.038.
Work on PAPPPVLDTPLP yielded a protein stability index of 0.6018 ± 0.0057.
Work on YISLQKGVMNEL yielded a protein stability index of 0.728 ± 0.008.
In the case of FFSSALILSLRL, the protein stability index is reported as 0.533 ± 0.023.
With AVVWMGAGVGGV the protein stability index was 0.718 ± 0.03.
In the case of GLDEAYVSRNIN, the protein stability index is reported as 0.647 ± 0.011.
For PLESRPHNAHQR, the protein stability index was 0.663 ± 0.09.
VLPPLPGPPTLS gave a protein stability index of 0.6945 ± 0.0033.
With IFVTLGWARMRY the protein stability index was 0.647 ± 0.065.
For PPPSPFLPPRAP, the protein stability index was 0.709 ± 0.051.
Sequence MRSRWFAREFGK has a protein stability index of 0.659 ± 0.07.
Sequence CLFWWDASTILP has a protein stability index of 0.68 ± 0.13.
With RGRDLSLCQFFY the protein stability index was 0.7364 ± 0.0024.
For GGGGGGGAGGSV, the protein stability index was 0.673 ± 0.0081.
Sequence FTLYLASVHFTR has a protein stability index of 0.56 ± 0.044.
In the case of GRSAYRESGRRV, the protein stability index is reported as 0.675 ± 0.04.
In the case of PLTPPPALILFP, the protein stability index is reported as 0.693 ± 0.022.
LRTPNIYLSFSP was tested, and the protein stability index was 0.666 ± 0.1.
RRRLLLWEELVE was tested, and the protein stability index was 0.7706 ± 0.004.
For KKKKKNSRKKQQ, the protein stability index was 0.7108 ± 0.0018.
Work on PMPPPHLLPSSS yielded a protein stability index of 0.723 ± 0.024.
For RGCVKQGLYCVL, the protein stability index was 0.679 ± 0.044.
With SLEWVGGRRWPI the protein stability index was 0.731 ± 0.014.
Work on FFVGAGGTEGLG yielded a protein stability index of 0.705 ± 0.0088.
For PLPPPVFLLFPL, the protein stability index was 0.667 ± 0.051.
KQKKAKKQKKKK was tested, and the protein stability index was 0.69 ± 0.099.
GVYWGEIDDVER showed a protein stability index of 0.717 ± 0.015.
PSALPPFQPGPL showed a protein stability index of 0.747 ± 0.047.
LPGAEASRCTST was tested, and the protein stability index was 0.657 ± 0.041.
Work on PTTLCLSDRPQP yielded a protein stability index of 0.721 ± 0.0081.
APPTSPLPIPSP showed a protein stability index of 0.698 ± 0.017.
Work on YRSPRSSSGSSF yielded a protein stability index of 0.67 ± 0.041.
Sequence PPPPFPPPPPHS has a protein stability index of 0.719 ± 0.039.
With TNLYGWGGERTV the protein stability index was 0.688 ± 0.0092.
In the case of AKNQSTGCKKKV, the protein stability index is reported as 0.684 ± 0.043.
In the case of VCGALRWCGGPD, the protein stability index is reported as 0.705 ± 0.018.
In the case of PPPPVPSLLLLS, the protein stability index is reported as 0.579 ± 0.019.
In the case of EWRDSCLLKWWV, the protein stability index is reported as 0.725 ± 0.015.
LRSGSLVSLPPL showed a protein stability index of 0.747 ± 0.1.
With NSRASHPTNQII the protein stability index was 0.789 ± 0.054.
For CSFFGPGFICSL, the protein stability index was 0.666 ± 0.013.
GGGNRMRENGRE gave a protein stability index of 0.667 ± 0.026.
In the case of LECLSRGWSIYC, the protein stability index is reported as 0.541 ± 0.05.
In the case of VFGDFAIGGLSG, the protein stability index is reported as 0.711 ± 0.077.
In the case of LYHCFRCYYMPW, the protein stability index is reported as 0.637 ± 0.033.
With GKMQIRRFISRS the protein stability index was 0.67 ± 0.0088.
Sequence SKEVVVEGKRQS has a protein stability index of 0.715 ± 0.065.
For GYSPMGFSFFPV, the protein stability index was 0.673 ± 0.047.
In the case of VGPDGFWGVVLG, the protein stability index is reported as 0.719 ± 0.023.
In the case of GLGVCSPRFLVL, the protein stability index is reported as 0.763 ± 0.15.
Work on VRGVGLVDVVGL yielded a protein stability index of 0.727 ± 0.12.
With ATGFSLLDFSMP the protein stability index was 0.679 ± 0.069.
With RSRPPPSPTTPL the protein stability index was 0.775 ± 0.054.
PLMKHSHSSLPF gave a protein stability index of 0.7016 ± 0.0043.
For AQRNSPIVLAVL, the protein stability index was 0.527 ± 0.0063.
PFSSPPPPCRSC showed a protein stability index of 0.718 ± 0.023.
Sequence CSLVWPGSMSVD has a protein stability index of 0.738 ± 0.033.
APPRLTTLSMNL gave a protein stability index of 0.696 ± 0.0073.
With GLGKFSALSLVV the protein stability index was 0.658 ± 0.044.
HPATPPPLLPPL showed a protein stability index of 0.74479 ± 0.0007.
With SRHRAVRAGENW the protein stability index was 0.708 ± 0.045.
In the case of QSPTFLTPLALA, the protein stability index is reported as 0.653 ± 0.039.
LFIYSMKRFILE gave a protein stability index of 0.631 ± 0.052.
RPFLSVLPLFFP showed a protein stability index of 0.734 ± 0.0017.
In the case of SLPPPPARAAIL, the protein stability index is reported as 0.668 ± 0.07.
Work on SRGLPAPASRYC yielded a protein stability index of 0.713 ± 0.015.
Sequence TGCRAVPDLNAD has a protein stability index of 0.695 ± 0.018.
TPPPLRTASLLP gave a protein stability index of 0.67 ± 0.1.
For GGEGMTCPGGGA, the protein stability index was 0.693 ± 0.039.
SLPLPPLPYSRT was tested, and the protein stability index was 0.732 ± 0.083.
TPPLRPLLYSNA was tested, and the protein stability index was 0.53 ± 0.059.
VLCGALRIVGHK gave a protein stability index of 0.603 ± 0.017.
Work on INEEIVDMKRLL yielded a protein stability index of 0.697 ± 0.0095.
Work on SVGPWVSSGGFR yielded a protein stability index of 0.6664 ± 0.0048.
In the case of CTLWCIPGCNMR, the protein stability index is reported as 0.666 ± 0.066.
VRQSQIKHVVVQ gave a protein stability index of 0.627 ± 0.019.
GVGDELIRAEQT gave a protein stability index of 0.723 ± 0.018.
In the case of GGRRGCFARWAR, the protein stability index is reported as 0.697 ± 0.046.
GRLSPRRPRLLV was tested, and the protein stability index was 0.645 ± 0.024.
RRPGSTTPPAYR gave a protein stability index of 0.675 ± 0.048.
Work on VPPVLRPLPPSP yielded a protein stability index of 0.72 ± 0.025.
Sequence LFLLSLLDWGFR has a protein stability index of 0.661 ± 0.072.
